# T1: soluble TNFR1 receptor domain (sTNFR1) (UniProt P19438 30-211, fluorescently labeled with Alexa Fluor 633 or Alexa Fluor 488 in the MST only)
# T1 construct: TNF receptor TNFR1, soluble extracellular domain (sTNFR1); also called soluble TNFR1 site; source: recombinant, obtained as described in [10], purified
# T1 sequence (looked up): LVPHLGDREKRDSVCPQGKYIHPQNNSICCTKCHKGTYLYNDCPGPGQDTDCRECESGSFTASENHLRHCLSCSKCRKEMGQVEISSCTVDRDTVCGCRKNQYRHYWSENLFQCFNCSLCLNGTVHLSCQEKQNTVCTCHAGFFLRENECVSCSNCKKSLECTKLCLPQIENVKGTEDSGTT
# B1: Tag7 protein (PGLYRP1) (natural protein, UniProt O75594 22-196, looked up)
# chain: QETEDPACCSPIVPRNEWKALASECAQHLSLPLRYVVVSHTAGSSCNTPASCQQQARNVQHYHMKTLGWCDVGYNFLIGEDGLVYEGRGWNFTGAHSGHLWNPMSIGISFMGNYMDRVPTPQAIRAAQGLLACGVAQGALRSNYVLKGHRDVQRTLSPGNQLYHLIQNWPHYRSP
# notes: Tag7 (PGLYRP1), innate immunity protein; also called full-sized Tag7 protein; source: recombinant, obtained as described in [10]
# B2: peptide 17.1A (peptide)
# peptide: HRDVQRT
# notes: Not biotinylated; used in the MST and the cytotoxicity tests; source: synthetic peptide (Fmoc, HPLC purified)
# Molecular target: T1, soluble TNFR1 receptor domain (sTNFR1)
# Assay: MST; sTNFR1 or Hsp70 labeled with Alexa Fluor 633 or 488 (200 nM), 20 min in the dark at room temperature with 16 concentrations of each compound; Monolith NT 115, IR laser power 10%; apparent Kd; triplicate
# Settings: both partners purified
row,Binder,Kd [nM]
1,B1,43.2
2,B2,5.44

# From article PMC10379010, “Short Peptides of Innate Immunity Protein Tag7 (PGLYRP1) Selectively Induce Inhibition or Activation of Tumor Cell Death via TNF Receptor” (International Journal of Molecular Sciences, 2023)
